The values that follow come from paper PMC9079946, “Enzyme-free ultrasensitive fluorescence detection of epithelial cell adhesion molecules based on a toehold-aided DNA recycling amplification strategy†”.

One data set concerns the target T1, EpCAM (UniProt P16422 24-265).
T1 sequence: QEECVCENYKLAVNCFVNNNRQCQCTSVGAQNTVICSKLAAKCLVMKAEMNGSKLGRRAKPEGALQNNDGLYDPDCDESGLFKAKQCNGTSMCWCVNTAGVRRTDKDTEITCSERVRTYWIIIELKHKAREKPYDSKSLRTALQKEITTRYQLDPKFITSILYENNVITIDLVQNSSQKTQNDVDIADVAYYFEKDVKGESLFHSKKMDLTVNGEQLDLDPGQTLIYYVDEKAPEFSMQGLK
As to the kind of experiment: strand a displacement with toehold-aided fluorescence amplification; 30 nM aptamer/strand a, 50 ng/mL EpCAM, 10 mM Mg2+; strands b, c, d, e 100 nM; 20 mM Tris-HCl, 100 mM NaCl, 10 mM KCl, 10 mM MgCl2, pH 7.5, 37 °C, 30 min. To be noted: protein: commercial; partial duplex: 15 nt strand a hybridised to 48 nt aptamer; single-stranded 5' and 3' aptamer overhangs.

For a further data set, the target named is CD86 (UniProt P42081 24-247). As to the kind of experiment: strand a displacement with toehold-aided fluorescence amplification; 100 ng/mL CD86; slight fluorescence change only; 20 mM Tris-HCl, 100 mM NaCl, 10 mM KCl, 10 mM MgCl2, pH 7.5, 37 °C, 30 min. The conditions noted are these: protein: commercial; partial duplex: 15 nt strand a hybridised to 48 nt aptamer; single-stranded 5' and 3' aptamer overhangs.
Sequence of CD86 (P42081 24-247): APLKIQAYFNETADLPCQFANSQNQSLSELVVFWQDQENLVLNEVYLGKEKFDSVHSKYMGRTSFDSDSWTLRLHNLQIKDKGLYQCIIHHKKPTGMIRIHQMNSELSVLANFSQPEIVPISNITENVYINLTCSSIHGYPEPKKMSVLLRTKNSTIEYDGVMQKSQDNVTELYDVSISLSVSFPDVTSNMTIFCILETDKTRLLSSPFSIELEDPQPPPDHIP

B1: EpCAM aptamer / strand a duplex (mixed)
DNA 1: CACTACAGAGGTTGCGTCTGTCCCACGTTGTCATGGGGGGTTGGCCTG
DNA 2: AGACGCAACCTCTGT
As to B1, the binding result with EpCAM is given as “binds”; in the data set with CD86, “no binding”.
